From the supplement of paper PMC9112550, “Optimization of the antimicrobial peptide Bac7 by deep mutational scanning” (BMC Biology, 2022)

Test system: Escherichia coli TOP10
Assay: shrunken log2 fold change of peptide-encoding DNA abundance (4.5 h post-induction vs induction); higher = less antimicrobial activity (less host growth inhibition)
Conditions: time post-induction: 4.5 h; library: site-saturation at positions 5, 18, 19, 20
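Also: peptides expressed intracellularly from a pBAD plasmid library in pooled LB shake-flask culture, induced with 0.3% L-arabinose, DNA abundance read by NGS, three biological replicates, DESeq2 with apeglm shrinkage.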

Sequence | shrunken log2 fold change
RRIRHRPPRLPRPRPRPRMRPRP | 0.39
RRIRDRPPRLPRPRPRPQLFPRP | -0.0901
RRIRLRPPRLPRPRPRPYTFPRP | -0.00482
RRIRVRPPRLPRPRPRPTMIPRP | 0.0351
RRIRYRPPRLPRPRPRPVLCPRP | -0.272
RRIRSRPPRLPRPRPRPAQAPRP | 0.15
RRIRWRPPRLPRPRPRPGLHPRP | 0.237
RRIRSRPPRLPRPRPRPLTMPRP | -0.242
RRIRPRPPRLPRPRPRPFRYPRP | -0.0865
RRIRRRPPRLPRPRPRPFNKPRP | -0.712
RRIRWRPPRLPRPRPRPLWVPRP | 0.0766
RRIRGRPPRLPRPRPRPNATPRP | 3.1
RRIRLRPPRLPRPRPRPFWQPRP | -0.0702
RRIRPRPPRLPRPRPRPTKVPRP | -0.0777
RRIRERPPRLPRPRPRPTSMPRP | -0.713
RRIRERPPRLPRPRPRPWARPRP | -0.0915
RRIRYRPPRLPRPRPRPMGWPRP | -0.134
RRIRCRPPRLPRPRPRPWEPPRP | -0.00185
RRIRHRPPRLPRPRPRPGWTPRP | -0.00563
RRIRKRPPRLPRPRPRPGLYPRP | 0.324
RRIRYRPPRLPRPRPRPNRTPRP | -0.211
RRIRTRPPRLPRPRPRPISEPRP | 0.00252
RRIRNRPPRLPRPRPRPENLPRP | 0.00699
RRIRRRPPRLPRPRPRPGCVPRP | 0.329
RRIRTRPPRLPRPRPRPRVEPRP | 0.073

Sequence | shrunken log2 fold change
RRIRGRPPRLPRPRPRPLVYPRP | 0.0199
RRIRYRPPRLPRPRPRPVYYPRP | -0.68
RRIRHRPPRLPRPRPRPMIDPRP | -0.161
RRIRARPPRLPRPRPRPEWYPRP | 0.137
RRIRTRPPRLPRPRPRPIFMPRP | 0.0645
RRIRNRPPRLPRPRPRPSFCPRP | -0.548
RRIRVRPPRLPRPRPRPLIWPRP | -0.0254
RRIRSRPPRLPRPRPRPKRWPRP | 0.71
RRIRYRPPRLPRPRPRPGMCPRP | 0.0154
RRIRNRPPRLPRPRPRPQTQPRP | 0.153
RRIRYRPPRLPRPRPRPLECPRP | -0.183
RRIRSRPPRLPRPRPRPTLIPRP | -0.0693
RRIRLRPPRLPRPRPRPRYYPRP | -0.103
RRIRVRPPRLPRPRPRPDVIPRP | -0.0508
RRIRSRPPRLPRPRPRPREGPRP | 2.98
RRIRARPPRLPRPRPRPKYSPRP | -0.39
RRIRGRPPRLPRPRPRPEHYPRP | -0.0809
RRIRGRPPRLPRPRPRPHFPPRP | 0.0246
RRIRYRPPRLPRPRPRPQENPRP | -0.00441
RRIRPRPPRLPRPRPRPPWWPRP | 0.842
RRIRLRPPRLPRPRPRPTVPPRP | -0.0925
RRIRFRPPRLPRPRPRPARKPRP | 0.294
RRIRWRPPRLPRPRPRPLRIPRP | 0.148
RRIRMRPPRLPRPRPRPHQYPRP | -0.41
RRIRSRPPRLPRPRPRPAKKPRP | 0.0292

Sequence | shrunken log2 fold change
RRIRCRPPRLPRPRPRPDYQPRP | -0.447
RRIRARPPRLPRPRPRPGALPRP | 1.22
RRIRSRPPRLPRPRPRPGELPRP | 0.0807
RRIRNRPPRLPRPRPRPGGCPRP | 0.203
RRIRQRPPRLPRPRPRPRLKPRP | 0.161
RRIRPRPPRLPRPRPRPGMSPRP | 0.0989
RRIRDRPPRLPRPRPRPRENPRP | 0.415
RRIRFRPPRLPRPRPRPYEDPRP | -0.951
RRIRRRPPRLPRPRPRPVPMPRP | 0.452
RRIRTRPPRLPRPRPRPYEYPRP | 0.0353
RRIRLRPPRLPRPRPRPISCPRP | -0.0691
RRIRERPPRLPRPRPRPGNHPRP | -0.141
RRIRSRPPRLPRPRPRPKGKPRP | 0.0401
RRIRKRPPRLPRPRPRPNENPRP | 0.304
RRIRGRPPRLPRPRPRPHWMPRP | 0.0496
RRIRIRPPRLPRPRPRPKGGPRP | 0.04
RRIRERPPRLPRPRPRPSIRPRP | -0.242
RRIRDRPPRLPRPRPRPHFKPRP | -0.148
RRIRVRPPRLPRPRPRPGWYPRP | 0.0128
RRIRMRPPRLPRPRPRPELHPRP | 0.397
RRIRYRPPRLPRPRPRPVDGPRP | -0.0183
RRIRYRPPRLPRPRPRPLIYPRP | -1.24
RRIRYRPPRLPRPRPRPLEQPRP | -0.121
RRIRGRPPRLPRPRPRPMEIPRP | -0.0753
RRIRHRPPRLPRPRPRPQSPPRP | 0.0863

Sequence | shrunken log2 fold change
RRIRRRPPRLPRPRPRPKMCPRP | -0.0385
RRIRHRPPRLPRPRPRPSMEPRP | -0.424
RRIRGRPPRLPRPRPRPNALPRP | 0.474
RRIRSRPPRLPRPRPRPQWMPRP | -0.155
RRIRPRPPRLPRPRPRPNIHPRP | -0.579
RRIRIRPPRLPRPRPRPAQLPRP | -0.177
RRIRWRPPRLPRPRPRPGVYPRP | 0.221
RRIRSRPPRLPRPRPRPRLWPRP | 0.397
RRIRWRPPRLPRPRPRPWFPPRP | -0.0213
RRIRTRPPRLPRPRPRPQFVPRP | -0.127
RRIRKRPPRLPRPRPRPHANPRP | 0.18
RRIRRRPPRLPRPRPRPTKHPRP | 0.124
RRIRDRPPRLPRPRPRPYSPPRP | 0.0205
RRIRERPPRLPRPRPRPAWMPRP | 0.501
RRIRTRPPRLPRPRPRPRTYPRP | -0.288
RRIRIRPPRLPRPRPRPVRKPRP | -0.48
RRIRWRPPRLPRPRPRPYDVPRP | -0.0559
RRIRTRPPRLPRPRPRPELWPRP | -0.142
RRIRNRPPRLPRPRPRPRTDPRP | 0.089
RRIRNRPPRLPRPRPRPPPNPRP | 1.04
RRIRARPPRLPRPRPRPPTTPRP | 0.775
RRIRARPPRLPRPRPRPMMIPRP | 0.313
RRIRRRPPRLPRPRPRPEDNPRP | 0.066
RRIRPRPPRLPRPRPRPPWYPRP | -0.195
RRIRWRPPRLPRPRPRPINKPRP | -0.431

Sequence | shrunken log2 fold change
RRIRMRPPRLPRPRPRPGCHPRP | 0.0532
RRIRVRPPRLPRPRPRPYMVPRP | -0.292
RRIRLRPPRLPRPRPRPKHFPRP | -0.494
RRIRVRPPRLPRPRPRPDYGPRP | -0.133
RRIRDRPPRLPRPRPRPVMAPRP | 0.774
RRIRWRPPRLPRPRPRPLWIPRP | -0.115
RRIRWRPPRLPRPRPRPTAVPRP | 0.415
RRIRARPPRLPRPRPRPWFRPRP | 0.133
RRIRDRPPRLPRPRPRPVDSPRP | -0.0208
RRIRPRPPRLPRPRPRPQGMPRP | -0.279
RRIRYRPPRLPRPRPRPGIKPRP | -0.311
RRIRYRPPRLPRPRPRPKYPPRP | -0.0165
RRIRFRPPRLPRPRPRPSIWPRP | -0.111
RRIRPRPPRLPRPRPRPALGPRP | 0.964
RRIRTRPPRLPRPRPRPTWHPRP | 0.153
RRIRWRPPRLPRPRPRPNCLPRP | 0.257
RRIRERPPRLPRPRPRPNVMPRP | -0.403
RRIRNRPPRLPRPRPRPCYCPRP | -0.00992
RRIRMRPPRLPRPRPRPKEAPRP | -0.00711
RRIRTRPPRLPRPRPRPSEKPRP | -0.0354
RRIRPRPPRLPRPRPRPVVFPRP | 0.0396
RRIRKRPPRLPRPRPRPKVQPRP | 0.092
RRIRMRPPRLPRPRPRPVFFPRP | 0.207
RRIRARPPRLPRPRPRPMVWPRP | 1.07
RRIRLRPPRLPRPRPRPDEMPRP | 0.123
